# Test results taken from patent US20150219635A1 (UCB, published 2015).
# Assays:
# [1] = biological target: T1, Fcε3-4 (sub-fragment of IgE-Fc lacking the Cε2 domains) (human, UniProt P01854-1 209-428, limits assumed); experiment: ITC, Fab titrated into Fcε3-4, sequential binding model; first Fab
# T1 construct: domain: Fcε3-4 (Cε3-Cε4); Production and any glycosylation site mutations not described
# Experimental: (§1) Experiments were carried out using a Microcal iTC200 calorimeter (GE Healthcare) at 20° C. in PBS buffer pH 7.4. Depending on the final ratio required, 25-30 μM of protein was used in the calorimeter cell and 10-20 fold higher concentrations were used in the syringe. The number and volume of injections were varied as appropriate. Heats of dilution were subtracted from the data before analysis. […] Analyses were carried out using MicroCal Origin, using a 1:1 binding model when IgE-Fc or Fcε3-4 was titrated into Fab, or a sequential 1:1 binding model when Fab was titrated into IgE-Fc or Fcε3-4.
# (§2) One way to establish experimentally that IgE-Fc adopts an […] as it flips between two bent conformations, is to determine the number of Fab binding sites that are available for binding: if rigidly and exclusively bent, only one site will initially be accessible, but if it can flip, then two sites are accessible. We therefore studied the interaction between Fab and IgE-Fc by isothermal titration calorimetry (ITC) and compared with the binding to Fcε3-4 which, lacking the Cε2 domains, always has two accessible sites.
# [2] = biological target: T1, Fcε3-4 (sub-fragment of IgE-Fc lacking …); experiment: ITC, Fcε3-4 titrated into Fab, 1:1 binding model
# Experimental: as §1, §2
# [3] = biological target: T1, Fcε3-4 (sub-fragment of IgE-Fc lacking …); experiment: stopped-flow tryptophan fluorescence, Fab in excess over Fcε3-4, two-step binding; column kon2
# Experimental: (§3) Experiments were carried out using a Chirascan Plus (Applied Photophysics Ltd) with a stopped-flow attachment at 20° C. in PBS buffer pH 7.4 and with pseudo-first order protein concentrations varied as required. Fluorescence was excited at 280 nm (1 nm slit width) and emitted fluorescence above 305 nm detected with a long-band pass. 6-10 runs were averaged for each experiment. Data were collected and analyzed using supplied software according to the manufacturer's instructions. Experimental transients were fitted either to single-exponential (Eq.1; [IgE-Fc] or [Fcε3-4]>[Fab] and only Fab¹ binding observable) or double-exponential (Eq.2; [Fab]>[IgE-Fc] or [Fcε3-4] and binding of both Fab¹ and Fab² observable) equations: […]
# (§4) where F is the observed fluorescence, ΔFₙ is the fluorescence amplitude change for the nth transient, kobsn is the pseudo-first order rate constant for the nth step and Fₑ is the end-point fluorescence. The bimolecular association rate constants for Fab¹ (k₊₁) and Fab² (k₊₂) binding were determined by fitting the linear concentration dependences of kobs1 and kobs2 to Eq. 3: […]
# [4] = biological target: T1, Fcε3-4 (sub-fragment of IgE-Fc lacking …); experiment: stopped-flow tryptophan fluorescence, Fab in excess over Fcε3-4, two-step binding; column kon
# Experimental: as §3, §4
# [5] = biological target: T1, Fcε3-4 (sub-fragment of IgE-Fc lacking …); experiment: ITC, Fab titrated into Fcε3-4, sequential binding model; second Fab
# Experimental: as §1, §2
# [6] = biological target: T1, Fcε3-4 (sub-fragment of IgE-Fc lacking …); experiment: stopped-flow tryptophan fluorescence, Fab in excess over Fcε3-4, two-step binding; column koff
# Experimental: as §3, §4
# [7] = biological target: T1, Fcε3-4 (sub-fragment of IgE-Fc lacking …); experiment: stopped-flow tryptophan fluorescence, Fcε3-4 in excess over Fab (1:1 complex)
# Experimental: as §3, §4
# T1 sequence (P01854 other isoform, or with tags, fused parts or gaps limits assumed): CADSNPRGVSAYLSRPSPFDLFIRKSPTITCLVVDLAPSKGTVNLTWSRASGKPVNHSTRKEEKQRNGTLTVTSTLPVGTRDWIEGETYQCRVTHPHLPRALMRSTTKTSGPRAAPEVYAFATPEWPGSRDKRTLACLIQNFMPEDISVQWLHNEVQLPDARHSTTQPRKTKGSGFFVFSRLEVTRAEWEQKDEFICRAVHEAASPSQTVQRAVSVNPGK
binder,measurement,setting,value
"Fab7 (anti-human IgE Fab, human IgG1 Fab format) (Fab, V domains shown, Expressed transiently in CHO cells; also called anti-IgE Fab; Fab^1) VH: QVQLQQSGPGLVKPSQTLSLTCGISGDSVSSNSAAWNWLRQSPSRGLEWLGRTYYRSKWYNDYAVSMKSRITINPDTSRNQFSLQLNSVTPEDTAVYYCARDGEISYDYYYYGMDVWGRGTLVTVSS VL: QSVLTQPPSASGTPGQRVTISCSGSSSNIGNNGVNWYQQVPGKPPKLLIYYDDLLPSGVSDRFSGSKSGTSASLAISGLQSEDEADYYCEAWDDSLDGVVFGGGTKLTVLG",Kd,[1],34 nM
same,Kd,[2],90 nM
same,kon,[3],370000 M⁻¹ s⁻¹
same,kon,[4],1e+06 M⁻¹ s⁻¹
same,Kd,[5],980 nM
same,koff,[6],0.95 s⁻¹
same,kon,[7],1e+06 M⁻¹ s⁻¹
